According to patent US20140005119A1, “COMPOSITIONS AND METHODS FOR INHIBITING THE ACTIVITY OF P110a MUTANT PROTEINS” (Case Western Reserve University, priority 2012, published 2014):

How the values were obtained:
[1] = target: T1, interaction between IRS1 and DABD p110α E545K (Homo sapiens, UniProt P35568); experiment: Co-IP from lysate of cells co-transfected with Myc-IRS1 and FLAG-tagged ΔABD p110α E545K, incubated with stapled peptide; format: binding
T1 construct: expressed in transfected cells
T1 sequence (P35568 1-1242): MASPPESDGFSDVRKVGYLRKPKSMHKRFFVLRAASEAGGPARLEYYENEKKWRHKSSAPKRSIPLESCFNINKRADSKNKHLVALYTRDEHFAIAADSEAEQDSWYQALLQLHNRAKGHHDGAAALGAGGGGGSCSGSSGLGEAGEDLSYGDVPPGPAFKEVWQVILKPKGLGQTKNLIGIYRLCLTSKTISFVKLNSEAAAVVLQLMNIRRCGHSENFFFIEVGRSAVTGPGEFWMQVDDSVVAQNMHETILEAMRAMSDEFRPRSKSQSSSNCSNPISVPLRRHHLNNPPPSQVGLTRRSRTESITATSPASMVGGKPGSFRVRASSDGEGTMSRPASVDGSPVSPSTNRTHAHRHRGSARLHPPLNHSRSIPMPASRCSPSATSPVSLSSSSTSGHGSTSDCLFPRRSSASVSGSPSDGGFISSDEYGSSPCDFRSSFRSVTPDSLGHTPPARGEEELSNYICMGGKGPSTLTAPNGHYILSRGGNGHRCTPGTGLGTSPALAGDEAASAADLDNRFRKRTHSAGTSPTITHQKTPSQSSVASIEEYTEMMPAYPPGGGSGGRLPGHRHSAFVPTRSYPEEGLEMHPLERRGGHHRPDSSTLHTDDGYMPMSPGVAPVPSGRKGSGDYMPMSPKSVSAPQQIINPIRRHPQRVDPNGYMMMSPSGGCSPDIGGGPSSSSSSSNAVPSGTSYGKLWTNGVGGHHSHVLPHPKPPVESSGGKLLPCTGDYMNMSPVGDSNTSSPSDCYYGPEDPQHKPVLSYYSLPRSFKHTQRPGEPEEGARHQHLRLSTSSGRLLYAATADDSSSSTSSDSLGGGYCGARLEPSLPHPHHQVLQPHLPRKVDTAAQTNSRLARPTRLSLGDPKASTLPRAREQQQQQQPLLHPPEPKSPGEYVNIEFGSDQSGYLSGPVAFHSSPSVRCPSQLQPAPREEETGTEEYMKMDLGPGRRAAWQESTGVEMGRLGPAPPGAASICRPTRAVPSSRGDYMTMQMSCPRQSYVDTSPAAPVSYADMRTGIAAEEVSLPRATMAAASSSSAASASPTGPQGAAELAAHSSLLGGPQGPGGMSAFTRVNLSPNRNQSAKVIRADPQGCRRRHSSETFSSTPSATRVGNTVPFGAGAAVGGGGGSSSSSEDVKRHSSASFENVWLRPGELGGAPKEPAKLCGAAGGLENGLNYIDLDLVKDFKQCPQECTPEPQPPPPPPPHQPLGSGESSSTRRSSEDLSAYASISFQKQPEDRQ
Procedure: FIGS. 3(A-M) illustrate: (A, B) Mapping peptides (P3, SEQ ID NO: 1; P4 SEQ ID NO: 2; P5, SEQ ID NO: 3; P6, SEQ ID NO: 4) derived from mutant p110α that inhibit interaction between IRS1 and p110α E545K. The indicated peptides were added into cell lysates made from the p110α E545K 3×FLAG KI cells. Cell lysates were immunoprecipitated with beads conjugated with anti-FLAG antibodies and then blotted with anti-IRS1 antibodies. (C) Immunoblots of cell lysates made from the p110α E545K 3×FLAG KI cells. Cell lysates were immunoprecipitated with beads conjugated with anti-FLAG antibodies and then blotted with the indicated antibodies. […] (J, K) Immunoblot and graph of purified recombinant p110α E545K mutant proteins mixed with the indicated components and quantified using an in vitro lipid kinase assay. […]
For Co-immunoprecipitation (Co-IP), cells were harvested, washed with PBS, and then lysed in IP buffer (50 mMTris [pH 7.4], 150 mMNaCl, 5 mMEDTA [pH 8.0], 0.5% NP40, 1 mM PMSF, complete Protease Inhibitor Cocktail tablet [Roche]; supplemented with phosphatase inhibitors [1 mM Na3VO4, 20 mM NaF, 0.1 mM b-glycerophosphate, 20 mM sodium pyrophosphate] when necessary). […] Lysates were then cleared by centrifugation (14,000 rpm, 10 min) and protein concentration in supernatants was determined with a BCA protein assay kit (Pierce, Rockford, Ill.). […]

[2] = target: T2, recombinant p110α E545K mutant protein (Homo sapiens, UniProt P42336, E545K); experiment: In vitro lipid kinase assay; format: biochemical; conditions: either alone or in the presence of IRS1
T2 construct: 6×His; made in house; host or cells: Sf9 insect cells (baculovirus)
Procedure: FIGS. 3(A-M) illustrate: (A, B) Mapping peptides (P3, SEQ ID NO: 1; P4 SEQ ID NO: 2; P5, SEQ ID NO: 3; P6, SEQ ID NO: 4) derived from mutant p110α that inhibit interaction between IRS1 and p110α E545K. The indicated peptides were added into cell lysates made from the p110α E545K 3×FLAG KI cells. Cell lysates were immunoprecipitated with beads conjugated with anti-FLAG antibodies and then blotted with anti-IRS1 antibodies. (C) Immunoblots of cell lysates made from the p110α E545K 3×FLAG KI cells. Cell lysates were immunoprecipitated with beads conjugated with anti-FLAG antibodies and then blotted with the indicated antibodies. (D) Immunoblots of cell lysate of Myc-tagged IRS1 plasmid, which co-transfected an ABD domain deletion construct of the FLAG-tagged p110α E545K mutant (ΔABD), incubated with the indicated amount of stapled p110α mutant peptides, and then immunoprecipitated with anti-FLAG antibodies and blotted with the indicated antibodies. (J, K) Immunoblot and graph of purified recombinant p110α E545K mutant proteins mixed with the indicated components and quantified using an in vitro lipid kinase assay. (L, M) Immunoblots of the indicated cell lines serum-starved, stimulated with 1 μg/ml insulin for 30 min, and then treated with or without the indicated peptides. Cell lysates were blotted with the indicated antibodies. All error bars show mean±SEM. *p<0.05, **p<0.001, t test. […]

T2 sequence (P42336 whole entry E545K): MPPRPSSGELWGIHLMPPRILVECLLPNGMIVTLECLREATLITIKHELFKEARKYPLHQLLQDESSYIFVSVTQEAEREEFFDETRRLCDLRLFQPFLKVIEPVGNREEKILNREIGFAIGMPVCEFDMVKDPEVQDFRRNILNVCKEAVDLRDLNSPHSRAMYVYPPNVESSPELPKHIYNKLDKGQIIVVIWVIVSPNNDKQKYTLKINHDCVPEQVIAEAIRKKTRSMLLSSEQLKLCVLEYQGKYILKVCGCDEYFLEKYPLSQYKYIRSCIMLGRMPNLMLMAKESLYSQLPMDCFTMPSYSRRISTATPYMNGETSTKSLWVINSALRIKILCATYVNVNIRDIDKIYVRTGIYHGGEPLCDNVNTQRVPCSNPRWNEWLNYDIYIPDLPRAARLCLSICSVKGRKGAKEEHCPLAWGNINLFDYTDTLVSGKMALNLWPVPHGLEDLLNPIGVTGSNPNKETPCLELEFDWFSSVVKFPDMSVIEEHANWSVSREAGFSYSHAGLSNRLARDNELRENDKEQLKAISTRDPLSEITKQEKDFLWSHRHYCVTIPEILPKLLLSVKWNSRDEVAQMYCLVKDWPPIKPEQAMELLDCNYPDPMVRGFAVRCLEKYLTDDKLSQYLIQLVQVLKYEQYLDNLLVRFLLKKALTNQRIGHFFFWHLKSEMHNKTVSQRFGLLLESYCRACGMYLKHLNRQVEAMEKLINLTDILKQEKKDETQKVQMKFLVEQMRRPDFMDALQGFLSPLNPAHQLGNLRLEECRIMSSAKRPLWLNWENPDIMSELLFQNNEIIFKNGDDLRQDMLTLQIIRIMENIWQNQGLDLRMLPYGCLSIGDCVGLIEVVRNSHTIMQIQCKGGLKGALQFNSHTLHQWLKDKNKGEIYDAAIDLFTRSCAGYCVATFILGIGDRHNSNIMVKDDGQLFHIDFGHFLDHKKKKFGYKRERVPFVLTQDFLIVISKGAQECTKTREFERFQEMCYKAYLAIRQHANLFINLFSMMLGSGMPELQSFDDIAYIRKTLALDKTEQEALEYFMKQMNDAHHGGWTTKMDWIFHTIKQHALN
T2 sequence (P27986 322-600 partner limits assumed): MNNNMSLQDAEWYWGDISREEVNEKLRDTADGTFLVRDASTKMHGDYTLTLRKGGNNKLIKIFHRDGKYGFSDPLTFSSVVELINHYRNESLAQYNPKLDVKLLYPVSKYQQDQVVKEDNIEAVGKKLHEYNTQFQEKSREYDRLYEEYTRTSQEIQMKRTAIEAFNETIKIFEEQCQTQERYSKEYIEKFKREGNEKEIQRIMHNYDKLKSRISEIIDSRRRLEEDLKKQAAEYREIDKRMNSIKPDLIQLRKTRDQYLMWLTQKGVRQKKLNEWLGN

H2N-SEITKQEK-D^549-FLW-S^553-HRHYC-COOH [stapled mutant peptide]
inhibition of the interaction between IRS1 and DABD p110α E545K [1]: inhibited
kinase activity of recombinant p110α [2]: no effect
